Measurements from PMC12339401 (2025).
Each block holds one binder with its values, some of them ahead of it.

How the values were obtained:
NIX(1–182)-GST = NIX(1–182)-GST (Homo sapiens (Human), UniProt O60238); test: microscopy-based bead assay
[1] = molecular target: GST-FAM134C (residues 250–466) (Homo sapiens (Human), UniProt Q86VR2); test: microscopy-based bead assay
Sequence of GST-FAM134C (residues 250–466) (Q86VR2 250-466): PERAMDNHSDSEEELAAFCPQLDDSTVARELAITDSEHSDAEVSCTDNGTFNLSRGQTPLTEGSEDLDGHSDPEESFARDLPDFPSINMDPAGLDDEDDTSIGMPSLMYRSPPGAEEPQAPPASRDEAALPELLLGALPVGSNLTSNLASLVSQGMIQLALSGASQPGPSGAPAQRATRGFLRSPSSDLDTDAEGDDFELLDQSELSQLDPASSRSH

Sequence of NIX(1–182)-GST (O60238 1-182): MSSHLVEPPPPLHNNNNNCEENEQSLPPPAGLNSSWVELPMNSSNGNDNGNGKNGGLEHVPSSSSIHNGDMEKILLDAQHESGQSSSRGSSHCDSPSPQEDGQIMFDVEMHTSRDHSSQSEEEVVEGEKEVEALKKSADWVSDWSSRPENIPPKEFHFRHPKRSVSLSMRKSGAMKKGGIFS

B1: GFP-FIP200 C-terminal region (CTR), residues 1429–1591 (protein)
chain: ADEGRVDSAMETSMMSVQENIHMLSEEKQRIMLLERTLQLKEEENKRLNQRLMSQSMSSVSSRHSEKIAIRDFQVGDLVLIILDERHDNYVLFTVSPTLYFLHSESLPALDLKPASGASRRPWVLGKVMEKEYCQAKKAQNRFKVPLGTKFYRVKAVSWNKKV
- binding result (NIX(1–182)-GST): no binding
- binding result [1]: binds

B4: mCherry-WIPI3 (protein)
chain: not shown
- binding result (NIX(1–182)-GST): no binding

Continued, values first:

- binding result (NIX(1–182)-GST): no binding
B2: GFP-tagged TBK1 (protein)
chain: MQSTSNHLWLLSDILGQGATANVFRGRHKKTGDLFAIKVFNNISFLRPVDVQMREFEVLKKLNHKNIVKLFAIEEETTTRHKVLIMEFCPCGSLYTVLEEPSNAYGLPESEFLIVLRDVVGGMNHLRENGIVHRDIKPGNIMRVIGEDGQSVYKLTDFGAARELEDDEQFVSLYGTEEYLHPDMYERAVLRKDHQKKYGATVDLWSIGVTFYHAATGSLPFRPFEGPRRNKEVMYKIITGKPSGAISGVQKAENGPIDWSGDMPVSCSLSRGLQVLLTPVLANILEADQEKCWGFDQFFAETSDILHRMVIHVFSLQQMTAHKIYIHSYNTATIFHELVYKQTKIISSNQELIYEGRRLVLEPGRLAQHFPKTTEENPIFVVSREPLNTIGLIYEKISLPKVHPRYDLDGDASMAKAITGVVCYACRIASTLLLYQELMRKGIRWLIELIKDDYNETVHKKTEVVITLDFCIRNIEKTVKVYEKLMKINLEAAELGEISDIHTKLLRLSSSQGTIETSLQDIDSRLSPGGSLADAWAHQEGTHPKDRNVEKLQVLLNCMTEIYYQFKKDKAERRLAYNEEQIHKFDKQKLYYHATKAMTHFTDECVKKYEAFLNKSEEWIRKMLHLRKQLLSLTNQCFDIEEEVSKYQEYTNELQETLPQKMFTASSGIKHTMTPIYPSSNTLVEMTLGMKKLKEEMEGVVKELAENNHILERFGSLTMDGGLRNVDCL

- binding result (NIX(1–182)-GST): binds
B3: mCherry-tagged WIPI1 (protein)
chain: MEAEAADAPPGGVESALSCFSFNQDCTSLATGTKAGYKLFSLSSVEQLDQVHGSNEIPDVYIVERLFSSSLVVVVSHTKPRQMNVYHFKKGTEICNYSYSSNILSIRLNRQRLLVCLEESIYIHNIKDMKLLKTLLDIPANPTGLCALSINHSNSYLAYPGSLTSGEIVLYDGNSLKTVCTIAAHEGTLAAITFNASGSKLASASEKGTVIRVFSVPDGQKLYEFRRGMKRYVTISSLVFSMDSQFLCASSNTETVHIFKLEQVTNSRPEEPSTWSGYMGKMFMAATNYLPTQVSDMMHQDRAFATARLNFSGQRNICTLSTIQKLPRLLVASSSGHLYMYNLDPQDGGECVLIKTHSLLGSGTTEENKENDLRPSLPQSYAATVARPSASSASTVPGYSEDGGALRGEVIPEHEFATGPVCLDDENEFPPIILCRGNQKGKTKQS
